{"source": "the DeepSol protein solubility set", "data": [{"assay": "soluble on expression in E. coli; label from the status in PepcDB or PDB records", "values": [{"sequence": "MAHHHHHHMETVDALDYSELVALNQEEALRRVLASYPRIGLQATELGRARRIVQRALYHKRAGDAVFLAYTSNLISSGLRDTFACLARDRLIDGFISTAGGIEEDAIKCLGKTLVGQFSLDGRELRRCGVNRTGNLLVPNDNYCHFENFFMPVLKHLHELQRESRWETMTAPSEMIAAIGAALGCKHPETCSDSLLYWCYRNNIPVFSPALTDGSIGDMIYFYNYSKKGLVLDPIVDVVRLRELGCRNRRCDDSQGGNRSQNNNGRTTCIVLGGGLPKHHLLQNVRADTVVYVSTGLEVDASPSSCNVAEDRANGVLLDNCEVVRVHGDASFVFPLLLCKAETSADTHKDVAA", "soluble on expression in E. coli": "soluble"}, {"sequence": "MILKTTLELVIDVKNNEKKIRTHSWKTKKIPPKKGEVSGQKLMVEKKSSKIFIENLKCQGNSAKNIFVFHLDLLHIKKLKNLNISMSSTDPILDISFDKPVYYPGDNMKLTVSVDTKRPLNARSVMFRCRGFRNRTVSFLNKYGIAWICKDGKNELPVGRLEQKFQFELGKDCPPTYKDGKIIYKVRLEIDQPWSRPLFIEKEFKMVHKLADQKMSQVMTYTSSPRFDALFSNGQPTFKVTMPKFTLYPGETTEFKLEVENHSSSTVKKIYAELEAEPFPLYHIYGNTKAKGKMHVLVAPYSTQKFTIPFTIPTDLTASFHTCGSSLKYTMKFGLVTDSWLTTDPALALVVSIGELESEEKKDEALKTPPPPPYTA", "soluble on expression in E. coli": "not soluble"}, {"sequence": "MGSDKIHHHHHHMARLPLKQFLADNPKKVLVLDGGQGTELENRGIKVANPVWSTIPFISESFWSDESSANRKIVKEMFNDFLNAGAEILMTTTYQTSYKSVSENTPIRTLSEYNNLLNRIVDFSRNCIGEDKYLIGCIGPWGAHICREFTGDYGAEPENIDFYQYFKPQLENFNKNDKLDLIGFETIPNIHELKAILSWDESILSRPFYIGLSVHEHGVLRDGTTMEEIAQVIKDLGDKINPNFSFLGINCVSFNQSPDILESLHQALPNMALLAYPNSGEVYDTEKKIWLPNSDKLNSWDTVVKQYISSGARIIGGCCRTSPKDIQEISAAVKKYT", "soluble on expression in E. coli": "not soluble"}, {"sequence": "RYWKPEFHPDNSKSIEEWTDEIHTTLQKIMPEVKSENETAELFLSGGVDSSYILAMSDIEKTGSCGYEEERFDESKLAQQTANILGCKNSRYIITPEEYFASVPYVMYHMEQPTGDASAIVFAIGCKAAAENTNICYSGEGADEFFGGYNIYHKAECYGENLKTFYIGNTNIMNEGEKRKILKKYNPDVLPIEVVKGIYEETEELDTLTNMSNVDIQIWLEGDIYFNIDKMSTAVGLEVRMPLTDTRIFDIASRIPSEYKVKGKENKIAFRTAASKTLPEEIAFRNKLGFIVPIRIWMADDQYNKDIRDKFNSEIADKFFNIDEINEIFNDYISGNSDNWRKIWMIYTFLVWYEIYFVKC", "soluble on expression in E. coli": "not soluble"}, {"sequence": "MSKIRVLSVDDSALMRQIMTEIINSHSDMEMVATAPDPLVARDLIKKFNPDVLTLDVEMPRMDGLDFLEKLMRLRPMPVVMVSSLTGKGSEVTLRALELGAIDFVTKPQLGIREGMLAYSEMIAEKVRTAARARIAAHKPMAAPTTLKAGPLLSSEKLIAIGASTGGTEAIRHVLQPLPLSSPAVIITQHMPPGFTRSFAERLNKLCQISVKEAEDGERVLPGHAYIAPGDKHMELARSGANYQIKIHDGPPVNRHRPSVDVLFHSVAKHAGRNAVGVILTGMGNDGAAGMLAMYQAGAWTIAQNEASCVVFGMPREAINMGGVSEVVDLSQVSQQMLAKISAGQAIRI", "soluble on expression in E. coli": "soluble"}, {"sequence": "MAHHHHHHSLNDELKNKSGKVKVMYVRSDDDSDKRTHNPRTGKGGGRPAKSRTDGGRRPARDERNNQSRDRKHETSPWRTVSRAPGDETPEKVDHGGISGKSFIDPEVLRRQRAEETRVYGENACQALFQSRPDAIVRAWFIQSVTPRFKEALRWMAANRKAYHVVDEAELAKASGTEHHGGVCFLIKKRNGTTVKQWVKQAADQDCVLALEDVANPHNLGGMMRSCAHFGVKGVVVQDAALLESGAAIRTAEGGAEHVQPITGESIVDVLDDFRQAGYTVVTTSSDRGQALFSTTLPEKMVLVLGREYDYLPEAAREPDDLCVKINGTGNVESLNVSVATGVLLAEWWRQNKAEG", "soluble on expression in E. coli": "soluble"}, {"sequence": "MGHHHHHHSHMDQRQRRILGQPLSIPTSQPKQKRTSMISFFSKVSWKLRFQKREPLKNVFFILAERARDPSAKKRHMAMRNLGTMAYEAPDKVRKYKKIVLDLLVYGLYDPVNLEVIHESMKTLTVVLGKIQGKGLGSFFIDIALQTRTLLDDENDSLRYSAFVLFGQLAAFAGRKWKKFFTSQVKQTRDSLLIHLQDRNPQVAKACKTTFQACSPYLKLKEEYSFQSEEDQRNTKLYQQLSHYHPEILQFFYANKIL", "soluble on expression in E. coli": "not soluble"}, {"sequence": "MEVIKITPRGYCYGVVDAMVIARNAALDPSLPRPIYILGMIVHNKHVTDAFAEEGIITLDGENRLEILEKIDHGTVIFTAHGVSPEVKKRALEKGLVTIDATCPDVTKTHRLIEQKLADGYDIIYIGKKGHPEPEGAVGINPERIHLVETIDDVERLSIHNERIMVTNQTTMSQWDVADIMAKVKEKYPHVEMHKEICLATQLRQEAVAEQAKEADVTIVVGDPRSNNSNRLAQVSEEIAGTKAYRVADVTEIDINWIKDAKKVAVTAGASTPTPITKEVIDFLEQFDPNDPSTWKRERKVPLQKILPKVKTKKEE", "soluble on expression in E. coli": "not soluble"}, {"sequence": "MQRHERIRFFITEQCRNLDPTYRNYMYPKQILLGDVPLPLLPNSSLTFRVNSAEKICFRIRLSIDDSQEPLNIGIPLSQVESVSIKDHSAKHPEPALLFLLKKGALERFIQVCNPLLGELHTYHGRKRKMLTYLTVILGMDPHLEQPNPVYCRVSLMANKFTFPFGTAKKILLKDLPIMWQEVLDKQYDRRLKTGIHHDRERMAEMDDEAWDWLMSFLNVKWDKCPSGGRWFVRDKDEILQSNEKLHHKMIYWLNQ", "soluble on expression in E. coli": "not soluble"}, {"sequence": "AFELPPLPYAHDALQPHISKETLEFHHDKHHNTYVVNLNNLVPGTEFEGKTLEEIVKTSSGGIFNNAAQVWNHTFYWNCLSPNAGGQPTGALADAINAAFGSFDKFKEEFTKTSVGTFGSGWGWLVKKADGSLALASTIGAGCPLTIGDTPLLTCDVWEHAYYIDYRNLRPKYVEAFWNLVNWAFVAEQFEGKTYKV", "soluble on expression in E. coli": "soluble"}, {"sequence": "MGSDKIHHHHHHMVTFSIRIISSDRIFLVAEVKALERVYVIGHKNPDTDSVCSAIGYAHFKNNVEKGKTFIPARSGDLTNESLFVLKYFGMNPPLHIETLEPTVEDLELKNPIFVTPDTSAYDVAMLMESRGIKNVPVVSKEKMIGVVTESNIARVYVRRLKIEPLVIHPVPFDQLVRILKAEVVCDYMKEKTVSGKVHIAVDALHVLLGKIEIGDVVIVGDNEPAQIALLEKGAKLMIVVNNAPVSNRVLEIAKEKNAAVLRVKFDAFSAAKLINLSLPVTLVMSKKFPTVTKKDTLEEVKEIVFTSKIRAAFVEDEKGRLCGVITRTDLLKDVRKKVILVDHNEITQAPEGVEKAEILEIIDHHRLGGLSTLNPVFFYNEPVGSTSTIVAEFFLKNGVKMEREIAGILLSGIVSDTLFFKLSTTTEKDRKMANFLADVAKLDLEKFAKKLLKEGMKIPEDVDPAELLKRDVKVYEMGEESFAVSQIMTSDFSTLLKEKERFMNTLKTLKGEFGVKHFFVLFTNPVEEASLLMMDGDQKLVEKAFNAEKKDGLFLLKGVMSRKKDFVPKIGEVLRRER", "soluble on expression in E. coli": "not soluble"}, {"sequence": "DLPGVVIFLHGVNDPGASYESVETGLCQGVNERLDRPDLVPGRYGGKYKEAGNVPYEKRDSDQKVILDDPDTYLYRRDASDPKTHSLLIPFYWGHRAAPDQIKRDDAGDPFRMRNQFQDINGNRLDRHFAKAGGFIANATNNIPDVYGEGFRPNLKSIALETFKPDNALYFGHSPARHYCVLAAHRLAMLIREIRRVSPDETITIMGHSQGTIVTLLAQALLVDGGDRCADTFIMVDTPYCVLPGNTPKDQDTFSTLVGIVTAITNMPHTQPAMSELRDAKTYCGRSGSRWLPTQGIRKNKVGSMTVFPERDNRGKVYLYFCPDDTTVSLDDVQ", "soluble on expression in E. coli": "not soluble"}, {"sequence": "MSLNVDLHCHSTASDGALSPSVLVARAHEHGVQALALTDHDTLEGLPEARQACVDLGMRWVSGVELSCTWGGATIHVLGYDFPLDAPPLLAAIQALHHGRWLRAEEIDRRLAAKGMPGTLEGARAVQHELGDSGNAPARPHFAEYLVRAGHVKDRGEAFRKWLGAGKLGDVKQHWPTLDETVATLRQSNAWVSLAHPMHYDLTRSKRRRLIADYIQAGGQALEVVNGMMPAEQVGTMSILAREFGLLASAGSDFHGPGTWGEIGAYRPLPEDLPPLWRRFSHEEGHHHHHH", "soluble on expression in E. coli": "soluble"}]}]}
